Patent US20080293089

T1: S5a (substrate in the E3 ligase selectivity example), P55036
T1 chain: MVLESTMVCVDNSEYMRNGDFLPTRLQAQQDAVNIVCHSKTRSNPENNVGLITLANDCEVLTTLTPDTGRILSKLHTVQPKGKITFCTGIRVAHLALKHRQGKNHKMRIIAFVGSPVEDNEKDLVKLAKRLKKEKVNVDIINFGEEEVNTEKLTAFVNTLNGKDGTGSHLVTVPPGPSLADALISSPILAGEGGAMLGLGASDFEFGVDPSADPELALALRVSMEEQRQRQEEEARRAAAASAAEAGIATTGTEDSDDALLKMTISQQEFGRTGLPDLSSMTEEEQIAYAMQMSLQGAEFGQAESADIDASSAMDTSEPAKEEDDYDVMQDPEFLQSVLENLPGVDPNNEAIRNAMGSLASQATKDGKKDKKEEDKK

B1: GST-Nedd4 (protein)
chain: MATCAVEVFGLLEDEENSRIVRVRVIAGIGLAKKDILGASDPYVRVTLYDPMNGVLTSVQTKTIKKSLNPKWNEEILFRVHPQQHRLLFEVFDENRLTRDDFLGQVDVPLYPLPTENPRLERPYTFKDFVLHPRSHKSRVKGYLRLKMTYLPKTSGSEDDNAEQAEELEPGWVVLDQPDAACHLQQQQEPSPLPPGWEERQDILGRTYYVNHESRRTQWKRPTPQDNLTDAENGNIQLQAQRAFTTRRQISEETESVDNRESSENWEIIREDEATMYSNQAFPSPPPSSNLDVPTHLAEELNARLTIFGNSAVSQPASSSNHSSRRGSLQAYTFEEQPTLPVLLPTSSGLPPGWEEKQDERGRSYYVDHNSRTTTWTKPTVQATVETSQLTSSQSSAGPQSQASTSDSGQQVTQPSEIEQGFLPKGWEVRHAPNGRPFFIDHNTKTTTWEDPRLKIPAHLRGKTSLDTSNDLGPLPPGWEERTHTDGRIFYINHNIKRTQWEDPRLENVAITGPAVPYSRDYKRKYEFFRRKLKKQNDIPNKFEMKLRRATVLEDSYRRIMGVKRADFLKARLWIEFDGEKGLDYGGVAREWFFLISKEMFNPYYGLFEYSATDNYTLQINPNSGLCNEDHLSYFKFIGRVAGMAVYHGKLLDGFFIRPFYKMMLHKPITLHDMESVDSEYYNSLRWILENDPTELDLRFIIDEELFGQTHQHELKNGGSEIVVTNKNKKEYIYLVIQWRFVNRIQKQMAAFKEGFFELIPQDLIKIFDENELELLMCGLGDVDVNDWREHTKYKNGYSANHQVIQWFWKAVLMMDSEKRIRLLQFVTGTSRVPMNGFAELYGSNGPQSFTVEQWGTPEKLPRAHTCFNRLDLPPYESFEELWDKLQMAIENTQGFDGVD
B2: GST-Siah2 (protein)
chain: MSRPSSTGPSANKPCSKQPPPQPQHTPSPAAPPAAATISAAGPGSSAVPAAAAVISGPGGGGGAGPVSPQHHELTSLFECPVCFDYVLPPILQCQAGHLVCNQCRQKLSCCPTCRGALTPSIRNLAMEKVASAVLFPCKYATTGCSLTLHHTEKPEHEDICEYRPYSCPCPGASCKWQGSLEAVMSHLMHAHKSITTLQGEDIVFLATDINLPGAVDWVMMQSCFGHHFMLVLEKQEKYEGHQQFFAIVLLIGTRKQAENFAYRLELNGNRRRLTWEATPRSIHDGVAAAIMNSDCLVFDTAIAHLFADNGNLGINVTISTCCP
B3: GST-E6AP (protein)
chain: MEKLHQCYWKSGEPQSDDIEASRMKRAAAKHLIERYYHQLTEGCGNEACTNEFCASCPTFLRMDNNAAAIKALELYKINAKLCDPHPSKKGASSAYLENSKGAPNNSCSEIKMNKKGARIDFKDVTYLTEEKVYEILELCREREDYSPLIRVIGRVFSSAEALVQSFRKVKQHTKEELKSLQAKDEDKDEDEKEKAACSAAAMEEDSEASSSRIGDSSQGDNNLQKLGPDDVSVDIDAIRRVYTRLLSNEKIETAFLNALVYLSPNVECDLTYHNVYSRDPNYLNLFIIVMENRNLHSPEYLEMALPLFCKAMSKLPLAAQGKLIRLWSKYNADQIRRMMETFQQLITYKVISNEFNSRNLVNDDDAIVAASKCLKMVYYANVVGGEVDTNHNEEDDEEPIPESSELTLQELLGEERRNKKGPRVDPLETELGVKTLDCRKPLIPFEEFINEPLNEVLEMDKDYTFFKVETENKFSFMTCPFILNAVTKNLGLYYDNRIRMYSERRITVLYSLVQGQQLNPYLRLKVRRDHIIDDALVRLEMIAMENPADLKKQLYVEFEGEQGVDEGGVSKEFFQLVVEEIFNPDIGMFTYDESTKLFWFNPSSFETEGQFTLIGIVLGLAIYNNCILDVHFPMVVYRKLMGKKGTFRDLGDSHPVLYQSLKDLLEYEGNVEDDMMITFQISQTDLFGNPMMYDLKENGDKIPITNENRKEFVNLYSDYILNKSVEKQFKAFRRGFHMVTNESPLKYLFRPEEIELLICGSRNLDFQALEETTEYDGGYTRDSVLIREFWEIVHSFTDEQKRLFLQFTTGTDRAPVGGLGKLKMIIAKNGPDTERLPTSHTCFNVLLLPEYSSKEKLKERLLKAITYAKGFGML
B4: GST-Murf1 (protein)
chain: MDYKSSLIQDGNPMENLEKQLICPICLEMFTKPVVILPCQHNLCRKCANDIFQAANPYWTSRGSSVSMSGGRFRCPTCRHEVIMDRHGVYGLQRNLLVENIIDIYKQECSSRPLQKGSHPMCKEHEDEKINIYCLTCEVPTCSMCKVFGIHKACEVAPLQSVFQGQKTELNNCISMLVAGNDRVQTIITQLEDSRRVTKENSHQVKEELSQKFDTLYAILDEKKSELLQRITQEQEKKLSFIEALIQQYQEQLDKSTKLVETAIQSLDEPGGATFLLTAKQLIKSIVEASKGCQLGKTEQGFENMDFFTLDLEHIADALRAIDFGTDEEEEEFIEEEDQEEEESTEGKEEGHQ
B5: His-CHIP (protein)
chain: MKGKEEKEGGARLGAGGGSPEKSPSAQELKEQGNRLFVGRKYPEAAACYGRAITRNPLVAVYYTNRALCYLKMQQHEQALADCRRALELDGQSVKAHFFLGQCQLEMESYDEAIANLQRAYSLAKEQRLNFGDDIPSALRIAKKKRWNSIEERRIHQESELHSYLSRLIAAERERELEECQRNHEGDEDDSHVRAQQACIEAKHDKYMADMDELFSQVDEKRKKRDIPDYLCGKISFELMREPCITPSGITYDRKDIEEHLQRVGHFDPVTRSPLTQEQLIPNLAMKEVIDAFISENGWVEDY

Biological target: T1, S5a (substrate in the E3 ligase …)

Protein | Ubiquitinated S5a?
B1 | Yes
B2 | Yes (low)
B3 | Yes
B4 | Yes
B5 | Yes
